# Substitutions are numbered along the chain they refer to. Read-outs that look alike come from different tables or passages of the source.
# B1: 22E11 (antibody, IgG1, V domains shown)
# VH: AVQLVESGGGLVQPKESLKISCAASGFTFSTAAMYWVRQAPGKGLEWVTRIRTKPNNYATYYADSVKGRFTISRDDSKSMVYLQMDNLKTEDTAMYYCTADYYDGTPFAYWGQGTLVTVSS
# VL: AVVMTQTPVSLSVSLGGQVSISCRSSQSLVHNNGITYLSWYLQKPGQSPQLPIYKVSNRFSGFSDRFSGGGSGTDFTLKISRVEPDDLGLYYCGQGTQYPYTFGAGTKLELK
# notes: also called clone 22E11
# B2: HC2_LC2 (antibody, V domains shown)
# VH: EVQLVESGGGLVQPGGSLRLSCAASGFTFSNAAMYWVRQAPGKGLELVSRIRTKPNNYATYHADSVKGRFTISRDNSKNTLYLQMNSLRAEDTAVYYCTADMATGDYWGQGTLVTVSS
# VL: DIQMTQSPSSLSASVGDRVTITCKASQNINKNLDWYQQKPGKAPKPLIYSTNNLQTGVPSRFSGSGSGTDFTLTISSLQPEDFATYYCYQYKSAWTFGQGTKVEIK
# notes: humanized 20H4 IgG
# B3: HC5_LC3 (antibody, V domains shown)
# VH: B2 VH with V48L, S49A, N76D, L81V
# VL: B2 VL with F71Y
# notes: humanized 20H4 IgG
# B4: HC3_LC5 (antibody, V domains shown)
# VH: B2 VH with L81V
# VL: EIVMTQSPATLSLSPGERATLSCKASQNINKNLDWYQQKPGQAPRPLIYSTNNLQTGIPARFSGSGSGTDFTLTISSLQPEDFAVYYCYQYKSAWTFGQGTKVEIK
# notes: humanized 20H4 IgG
# B5: HC2_LC4 (antibody, V domains shown)
# VH: B2 VH
# VL: B4 VL with P46L
# notes: humanized 20H4 IgG
# B6: HC5_LC5 (antibody, V domains shown)
# VH: B2 VH with V48L, S49A, N76D, L81V
# VL: B4 VL
# notes: humanized 20H4 IgG
# B7: HC2_LC6 (antibody, V domains shown)
# VH: B2 VH
# VL: B4 VL with I58V, F71Y
# notes: humanized 20H4 IgG
# B8: HC3_LC6 (antibody, V domains shown)
# VH: B2 VH with L81V
# VL: B4 VL with I58V, F71Y
# notes: humanized 20H4 IgG
# B9: HC3_LC4 (antibody, V domains shown)
# VH: B2 VH with L81V
# VL: B4 VL with P46L
# notes: humanized 20H4 IgG
# B10: HC5_LC4 (antibody, V domains shown)
# VH: B2 VH with V48L, S49A, N76D, L81V
# VL: B4 VL with P46L
# notes: humanized 20H4 IgG
# B11: HC5_LC6 (antibody, V domains shown)
# VH: B2 VH with V48L, S49A, N76D, L81V
# VL: B4 VL with I58V, F71Y
# notes: humanized 20H4 IgG
# B12: HC2_LC5 (antibody, V domains shown)
# VH: B2 VH
# VL: B4 VL
# notes: humanized 20H4 IgG
# B13: Chimeric 20H4 (antibody, human IgG1, kappa, V domains shown)
# VH: AVQLVESGGGLVQPKESLKISCAASGFTFSNAAMYWVRQAPGKGLELLARIRTKPNNYATYHADSVKGRFTISRDDSQSMVYLHMGNLKTEDTAMYYCTADMATGDYWGPGVMVTVSS
# VL: DIQMTQSPPVLSVSVGDRVTLSCKASQNINKNLDWYQQKHGEAPKPLIYSTNNLQTGVPSRFSGSGSGTDYTLTISSLQPEDVATYYCYQYKSAWTFGGGTKLELRR
# notes: also called Chi 20H4; chimeric 20H4 control
# B14: 18B4 (antibody, IgG2b, V domains shown)
# VH: EVQLVESGGGLVQPGRSLKLSCAASGFTFSSFAMAWVRQAPKKGLEWVATITSGGSKTYYPDSVKGRFTISRDNAKSTLYLQMDSLRSEDTATYYCAKGYFDYWGQGVMVTVSS
# VL: DVVLTQTPPTLSATIGQSVSISCRSSQSLLHSNGNTYLHWLLQRPGQSPQLLIYLVSRLESGVPNRFSGSGSGTDFTLKISGVEAEDLGVYYCVQGTHAPLTFGSGTKLEIK
# notes: also called clone 18B4
# What was measured:
# [1] = target: human alpha-synuclein oligomers (human, UniProt P37840 1-140); assay: competition ELISA: oligomers titrated in solution against 0.6 nM antibody, free antibody read on aSyn-coated plate
# Protocol: To measure the binding affinities of select antibodies toward oligomeric alpha-synuclein protein, purified antibodies were probed with different concentrations of human alpha-synuclein oligomers in solution, and the levels of unbound antibody were measured by ELISA analysis. In this experiment, 0.6 nM (0.1 pg/mL) of purified antibody was dissolved in phosphate-buffered saline (PBS) solution. […] The mixtures were gently shaken at room temperature for 1 hour to reach equilibrium. After that, these samples were transferred to an alpha-synuclein protein-coated ELISA plate, and antibody not bound to antigen in the previous solution was detected by direct ELISA.
# [2] = target: T1, human alpha-synuclein monomer (human, UniProt P37840 1-140); assay: ELISA, coated human alpha-synuclein
# mouse alpha-synuclein [3] = target: T2, mouse alpha-synuclein (mouse, UniProt O55042 1-140); assay: direct ELISA on coated antigen;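 further: plates coated with recombinant human, mouse or rat alpha-synuclein, purified antibody titrated 10 µg/mL down to 0.6 ng/mL for 1 h, bound antibody detected by anti-rat HRP with TMB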
# Protocol: (§1) 96-well Nunc plates were coated with 50 μL of recombinant human, mouse, or rat alpha-synuclein at a concentration of 1 μg/mL in PBS at 4° C. overnight. The plates were then washed three times with PBST and blocked with PBS containing 3% BSA at room temperature for 1 hour. Purified antibody was diluted by serial dilution methods, from 10 μg/mL to 0.6 ng/mL, and 50 μL of the antibody solution was added to the alpha-synuclein-coated wells. The plates were incubated for 1 hour at room temperature, then washed three times with PBST. Secondary detection antibody (goat anti-rat HRP (obtained from Southern Biotech)) was added 50 μL/well, 1:5,000 diluted in BSA-PBS solution. Plates were incubated for 1 hour at room temperature, then washed three times with PBST. Plates were subsequently developed with 50 μL/well of TMB substrate (Thermo Fisher) and quenched with 50 μL/well of 1 N sulfuric acid. The signal was quantified on a BioTek® plate reader at A450.
# [4] = target: T1, human alpha-synuclein monomer; assay: direct ELISA on coated antigen;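 further: plates coated with recombinant human, mouse or rat alpha-synuclein, purified antibody titrated 10 µg/mL down to 0.6 ng/mL for 1 h, bound antibody detected by anti-rat HRP with TMB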
# Protocol: as §1
# rat alpha-synuclein [5] = target: T3, rat alpha-synuclein (rat, UniProt P37377 1-140); assay: direct ELISA on coated antigen;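 further: plates coated with recombinant human, mouse or rat alpha-synuclein, purified antibody titrated 10 µg/mL down to 0.6 ng/mL for 1 h, bound antibody detected by anti-rat HRP with TMB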
# Protocol: as §1
# mouse alpha-synuclein [6] = target: T2, mouse alpha-synuclein; assay: ELISA, plate coated with the peptide or protein, antibody titrated, anti-rat HRP, A450
# Protocol: (§2) 96-well Nunc plates were coated with 1 pg/mL of the indicated synthetic peptide in PBS 50 μL/well overnight. The plates were washed three times with PBST, then blocked with 150 μL of 3% BSA in PBS for 1 hour. Purified antibody was diluted by serial dilution methods, from 10 pg/mL to 0.6 ng/ml, and 50 μL of the antibody solution was added to the peptide-coated wells. The plates were incubated for 1 hour at room temperature, then washed three times with PBST. Secondary detection antibody, goat anti-rat HRP (obtained from Southern Biotech) 1:5,000 diluted in BSA-PBS, was added to a concentration of 50 μL/well. Plates were incubated for one hour and washed three times with PBST. Plates were then developed with 50 μL/well of TMB substrate (obtained from Thermo Fisher) and quenched with 50 μL/well of 1 N sulfuric acid. The signal was quantified on a BioTek® plate reader at A450.
# [7] = target: T4, alpha-synuclein peptide 1-61 (human); assay: as above
# T4 construct: synthetic peptide coated on plate
# Protocol: as §2
# [8] = target: T5, alpha-synuclein peptide 1-95 (human); assay: as above
# T5 construct: synthetic peptide coated on plate
# Protocol: as §2
# [9] = target: alpha-synuclein peptide 1-112 (human); assay: as above
# Protocol: as §2
# [10] = target: human alpha-synuclein pre-formed fibrils (human, UniProt P37840 1-140); assay: competition ELISA: fibrils titrated in solution against 0.6 nM antibody, free antibody read on aSyn-coated plate
# Protocol: Purified antibody was probed with different concentrations of alpha-synuclein fibrils in solution, and the levels of unbound antibody were measured by ELISA analysis. In this experiment, 0.6 nM (0.1 μg/mL) of purified antibody was dissolved in phosphate-buffered saline (PBS) solution. […] The mixtures were gently shaken at room temperature for 1 hour to reach equilibrium. After that, these samples were transferred to an alpha-synuclein protein-coated ELISA plate and incubated for 5 minutes. During this short incubation, antibody that was not associated to antigen in the previous solution could instead bind onto the plate, and thus be quantified using a standard ELISA technique. By this means, it was possible to determine the amount of free antibody in the initial mixture with alpha-synuclein fibrils at indicated concentrations.
# mouse alpha-synuclein [11] = target: T2, mouse alpha-synuclein; assay: direct ELISA, plate coated with 1 µg/mL recombinant mouse alpha-synuclein, antibody titrated, anti-rat HRP, A450
# Protocol: as §1
# [12] = target: T6, alpha-synuclein peptide 61-140 (human); assay: peptide ELISA, coated fragment
# T6 construct: synthetic peptide coated on plate
# Protocol: as §2
# [13] = target: T7, alpha-synuclein peptide 95-140 (human); assay: peptide ELISA, coated fragment
# T7 construct: synthetic peptide coated on plate
# Protocol: as §2
# [14] = target: alpha-synuclein peptide 1-112 (human); assay: peptide ELISA, coated fragment
# Protocol: as §2
# [15] = target: T4, alpha-synuclein peptide 1-61; assay: peptide ELISA
# Protocol: as §2
# [16] = target: T5, alpha-synuclein peptide 1-95; assay: peptide ELISA
# Protocol: as §2
# mouse alpha-synuclein [17] = target: T2, mouse alpha-synuclein; assay: ELISA, coated mouse alpha-synuclein
# Protocol: as §1
# [18] = target: T1, human alpha-synuclein monomer; assay: SPR (Biacore 8K), IgG captured on anti-human Fc, aSyn monomer injected
# Protocol: (§3) Serial 3-fold dilutions of aSyn were injected at a flow rate of 30 μL/min. Each sample was analyzed using a 3-minute association and a 10-minute dissociation. After each injection, the chip was regenerated using 3 M MgCl₂. Binding response was corrected by subtracting the RU from a flow cell capturing an irrelevant IgG at similar density. A 1:1 Languir model of simultaneous fitting of kₒₙ and koff was used for kinetics analysis.
# [19] = target: T1, human alpha-synuclein monomer; assay: as above; remark: listed apart in the source
# Protocol: as §3
# rat alpha-synuclein [20] = target: T3, rat alpha-synuclein; assay: direct ELISA, plate coated with 1 µg/mL recombinant rat alpha-synuclein, antibody titrated, anti-rat HRP, A450
# Protocol: as §1
# mouse alpha-synuclein [21] = target: T2, mouse alpha-synuclein; assay: ELISA, plate coated with the peptide or protein, antibody titrated, anti-rat HRP, A450; remark: listed apart in the source
# Protocol: as §2
# [22] = target: T1, human alpha-synuclein monomer; assay: as above
# Protocol: as §2
# [23] = target: T6, alpha-synuclein peptide 61-140; assay: as above
# Protocol: as §2
# [24] = target: T4, alpha-synuclein peptide 1-61; assay: as above; remark: listed apart in the source
# Protocol: as §2
# [25] = target: T5, alpha-synuclein peptide 1-95; assay: as above; remark: listed apart in the source
# Protocol: as §2
# [26] = target: T7, alpha-synuclein peptide 95-140; assay: as above
# Protocol: as §2
# [27] = target: T1, human alpha-synuclein monomer; assay: direct ELISA, plate coated with 1 µg/mL recombinant human alpha-synuclein, antibody titrated, anti-rat HRP, A450
# Protocol: as §1
binder,measurement,setting,value
B1,IC50,[1],6.96 nM
same,antibody concentration at which ELISA is positive,[2],< 40 ng/mL
same,Bmax (O.D. at 450 nm),mouse alpha-synuclein [3],0.58 OD
same,EC50,mouse alpha-synuclein [3],0.26 nM
same,Bmax (O.D. at 450 nm),[4],1.05 OD
same,EC50,[4],0.4 nM
same,Bmax (O.D. at 450 nm),rat alpha-synuclein [5],0.5 OD
same,EC50,rat alpha-synuclein [5],1 nM
same,EC50 (read off the curve),mouse alpha-synuclein [6],~0.3 µg/mL
same,binding result,[7],no binding (tested: 10 µg/ml (1 on the log axis))
same,binding result,[8],no binding (tested: 10 µg/ml (1 on the log axis))
same,EC50 (read off the curve),[9],~0.3 µg/mL
same,IC50,[10],28.1 nM
same,EC50 (read off the curve),mouse alpha-synuclein [11],~0.3 µg/mL
same,antibody concentration at which ELISA is positive,[12],< 40 ng/mL
same,antibody concentration at which ELISA is positive,[13],< 40 ng/mL
same,antibody concentration at which ELISA is positive,[14],160 to 640 ng/mL
same,antibody concentration at which ELISA is positive,[15],> 2600 ng/mL
same,antibody concentration at which ELISA is positive,[16],> 2600 ng/mL
same,antibody concentration at which ELISA is positive,mouse alpha-synuclein [17],40 to 160 ng/mL
B2,Kd,[18],2.33 nM
same,Kd,[19],3.95 nM
B3,Kd,[18],5.17 nM
B4,Kd,[18],2.4 nM
B5,Kd,[18],9.78 nM
B6,Kd,[18],2.46 nM
B7,Kd,[18],5.27 nM
B8,Kd,[18],2.74 nM
B9,Kd,[18],9.08 nM
B10,Kd,[18],8.48 nM
B11,Kd,[18],2.78 nM
B12,Kd,[18],4.11 nM
B13,Kd,[18],2.96 nM
B14,IC50,[1],37.6 nM
same,EC50 (read off the curve),rat alpha-synuclein [20],~0.4 µg/mL
same,antibody concentration at which ELISA is positive,[2],< 40 ng/mL
same,EC50 (read off the curve),mouse alpha-synuclein [21],~0.08 µg/mL
same,EC50 (read off the curve),[22],~0.06 µg/mL
same,EC50 (read off the curve),[23],~0.08 µg/mL
same,binding result,[24],no binding (tested: 10 µg/ml (1 on the log axis))
same,binding result,[25],no binding (tested: 10 µg/ml (1 on the log axis))
same,EC50 (read off the curve),[26],~0.07 µg/mL
same,EC50,mouse alpha-synuclein [3],0.08 nM
same,Bmax (O.D. at 450 nm),[4],1.36 OD
same,EC50,[4],0.05 nM
same,Bmax (O.D. at 450 nm),rat alpha-synuclein [5],1.21 OD
same,EC50,rat alpha-synuclein [5],0.3 nM
same,EC50 (read off the curve),[27],~0.06 µg/mL
same,IC50,[10],85.7 nM
same,EC50 (read off the curve),mouse alpha-synuclein [11],~0.08 µg/mL
same,antibody concentration at which ELISA is positive,[12],< 40 ng/mL
same,antibody concentration at which ELISA is positive,[13],< 40 ng/mL
same,antibody concentration at which ELISA is positive,[14],160 to 640 ng/mL
same,antibody concentration at which ELISA is positive,[15],> 2600 ng/mL
same,antibody concentration at which ELISA is positive,[16],> 2600 ng/mL
same,antibody concentration at which ELISA is positive,mouse alpha-synuclein [17],40 to 160 ng/mL
